Source: PMC7043342

Experiments:
[1] = biological target: SPD_1495 (33-442 AA), recombinant, GST tag removed (S. pneumoniae D39); assay: SPR; SPD_1495 (30 ug/ml) fixed on a NanoGold-COOH sensor chip by capture coupling; ComE^D58E injected at 100, 200, 400, 800 and 1,600 nmol/liter in 0.01 M PBS; Open-SPR (Nicoya), 25°C; association and dissociation 300 s each; one-to-one diffusion-corrected model, TraceDrawer
[2] = biological target: T1, SPD_1495 (Streptococcus pneumoniae D39) (UniProt A0A0H2ZL68); assay: EMSA
T1 sequence: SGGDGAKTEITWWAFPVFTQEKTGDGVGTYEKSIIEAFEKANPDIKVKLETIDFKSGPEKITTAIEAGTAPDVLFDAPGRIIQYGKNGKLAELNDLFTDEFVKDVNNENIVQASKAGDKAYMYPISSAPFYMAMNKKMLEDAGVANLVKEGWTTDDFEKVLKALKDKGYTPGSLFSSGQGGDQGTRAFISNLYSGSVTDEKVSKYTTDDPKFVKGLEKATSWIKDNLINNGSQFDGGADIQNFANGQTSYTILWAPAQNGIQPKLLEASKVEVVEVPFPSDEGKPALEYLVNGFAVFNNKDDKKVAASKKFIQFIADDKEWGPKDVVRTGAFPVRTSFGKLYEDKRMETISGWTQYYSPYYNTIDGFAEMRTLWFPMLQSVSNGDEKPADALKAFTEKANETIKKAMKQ

Substance | Kd [1] | binding [2]
ComE^D58E, phosphomimetic mutant of the response regulator ComE (natural protein) | 1550 nM | 
TACACATCTGCTTCTAAAATATTGTTAGAAAACGATTTGACTGTCCTGATCAATTTGTCATGTTCTTATTTCATTTTACTATATTTTTGGTTCGCGGGAAGTCTACTAAGATACTTAAAGATGCAGATAGTGAAAAAAGGTGTAGACATTACCGTAAAAAAGTGATATAATCGTAAGATGTTCAATGTATAGGTGTTAATCATGAGTAGACGTTTTAA (double strand) [Bio-cps (cps upstream promoter)] |  | no binding
